Data: paper PMC3985704

Molecular target: T1, unmodified Dictyostelium Skp1A (Dictyostelium discoideum), P52285
T1 chain: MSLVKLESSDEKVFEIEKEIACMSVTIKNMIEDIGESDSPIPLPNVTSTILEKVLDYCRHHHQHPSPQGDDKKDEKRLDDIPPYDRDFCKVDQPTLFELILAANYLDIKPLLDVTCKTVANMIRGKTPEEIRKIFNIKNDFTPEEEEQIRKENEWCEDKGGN
Test: SAXS
Conditions: remark: other sources report otherwise

B1: unmodified Dictyostelium Skp1A, P52285 1-162 (natural protein)
chain: MSLVKLESSDEKVFEIEKEIACMSVTIKNMIEDIGESDSPIPLPNVTSTILEKVLDYCRHHHQHPSPQGDDKKDEKRLDDIPPYDRDFCKVDQPTLFELILAANYLDIKPLLDVTCKTVANMIRGKTPEEIRKIFNIKNDFTPEEEEQIRKENEWCEDKGGN
Question: Which stoichiometry N does the source give for B1 here?
Answer: 2
